Laboratory results: article PMC9835228 (Journal of Translational Medicine, 2023)
“And” between values parts separate entries of the source, which are not always exact repeats. Equal entries are not always repeated. Where two headings read alike, the source gives them in different places. Values belong to the molecule of their own block, whether it stands above or below them. Residues, ends and D or L forms follow the SMILES beside them.

Assays:
HER2 protein [1] = target: HER2 protein (Homo sapiens, UniProt P04626); test: Surface plasmon resonance of peptides toward HER2 protein; type: binding
[2] = In vivo metabolic stability (urine, radio-HPLC); details: ~37 MBq i.v., mouse urine collected p.i. (2 h, b63; 0.5 h for ^99mTc-H10F in Fig. S3)
clinical = details: female, human, in vivo, iv, 11.1 MBq per kilogram body weight, total radioactivity, mean ± SD
Experimental: (§1) The wrist or elbow on the same side as the healthy breast was selected for injection. […] On PET images, the volumes of interest (VOIs) were drawn over tumors using a 40% threshold, and the software automatically obtained the radioactivity concentration and the maximum and the mean standardized uptake values (SUVmax and SUVmean, respectively). T/B ratios were calculated from SUVmean values for further analysis. The contralateral breast tissue was considered the background for calculations. For semiquantitative analyses of SPECT images, the same VOI method as above was adopted to obtain the maximum and the average count values (Countsmax and Countsavg, respectively) of the breast tumors. The Countsavg value was compared between the tumor region and the contralateral region to obtain the T/B ratio. Calculations were performed using SPSS 23.0 software (IBM SPSS, Chicago, IL, USA) and GraphPad Prism 8 (GraphPad Software, San Diego, CA 92,108). After surgery, HER2 expression status was evaluated by IHC in tumor pathological sections of all 34 patients. For patients with an IHC score of HER2 (2 +), FISH was further performed.
(§2) Quantitative data were expressed as the mean ± SD. Statistical analysis of image parameters and biodistribution was performed with Student’s t test in Prism 7.0 (GraphPad Software, Inc., USA). P < 0.05 was considered statistically significant. Correlation analysis of the SUV data of clinical images and the IHC results was performed with SPSS Statistics 23.0 software (IBM SPSS, USA). The correlation between the SPECT T/B ratio and HER2 status was evaluated by Wilcoxon’s rank sum test. Spearman’s rank correlation analysis was performed on the SPECT T/B ratio and the immunoreactivity score. ROC curve analysis was performed to determine an optimal cutoff value for detecting HER2-positive (2 + , 3 +) breast cancer and to compare the diagnostic performance of different methods.

[3] = system: SK-BR-3 tumors (HER2-positive); test: Small-animal nanoScan SPECT/CT imaging in the SK-BR-3 tumor model; type: in vivo, female NOD SCID mice
Experimental: At 0.5, 1 and 2 h p.i., the mice were anesthetized by inhalation of 2% isoflurane and imaged using a nanoScan SPECT/CT system (Mediso Inc., Hungary) following a standard protocol. Briefly, the small-animal SPECT images were acquired with the technetium-99 m parameters (peak 140 keV with 20% width, frame time 25 s), and CT images were acquired with default settings (50 kVp, 0.67 mA, and rotation 210°, exposure time 300 ms). All SPECT/CT images were reconstructed and further analyzed by Fusion software (Mediso Inc., Hungary), including drawing volumes of interest on tumors and major organs as well as calculating the tumor uptake (%ID/cc) accordingly. […] Small-animal imaging of the monomer tracer ^99mTc-HP-rk was also conducted as a control.

[4] = system: HER2 expression in breast tumors
Experimental: as §1, §2

in vivo [5] = details: female, NOD SCID, mouse, tumor (SK-BR-3 xenograft), iv, 0.37 MBq, total radioactivity
Experimental: (§3) The animals were randomly chosen for in vivo assays when the tumor size reached 100–150 mm^3 (1–2 weeks after inoculation).
(§4) Each mouse was injected with 0.37 MBq (~ 0.03 µg) of tracer to evaluate the distribution of the probe in tumors and major organs (4 mice/group). The mice were sacrificed and dissected at 0.5, 1 and 2 h p.i. Blood, tumor, liver, kidney and other major organs were collected and weighed, and their radioactivity was counted in a Wallac 1480 γ-counter (Perkin-Elmer, Waltham, MA). […] All biodistribution data are presented as the percentage of injected dose per gram of tissue (%ID/g).

[6] = 74 MBq i.v., n = 5
Experimental: Ten 4-week-old female ICR mice were randomly divided into the experimental and control groups. The mice were numbered, weighed and photographed. […] The mice in the control group were injected with the same volume of saline. After 120 h, the mice were photographed again, their body weight was recorded, and the behavioral differences were observed. After the mice were sacrificed, they were dissected to observe the morphological differences in the organs.

in vivo [7] = details: female, NOD SCID, mouse, tumor (MCF7 xenograft), 0.37 MBq, total radioactivity
Experimental: as §3, §4

in vivo [8] = details: female, NOD SCID, mouse, tumor (MDA-MB-468 xenograft), 0.37 MBq, total radioactivity
Experimental: as §3, §4

[9] = Dosimetry estimation (OLINDA/EXM); set-up: species or system human; details: for effective radiation dose to the body: 11.1 MBq/kg
Experimental: The dosimetry calculation was performed according to the European Association of Nuclear Medicine Dosimetry Guidance and calculated using OLINDA/EXM (version 1.1; Vanderbilt University). The radiation effective dose (mSv/MBq) of the main organs of the human body was estimated from the biodistribution data of the SK-BR-3 tumor models (Additional file 1: Table S1).
The radiation effective dose (mSv/MBq) of the main organs of the human body was estimated from the biodistribution data of the SK-BR-3 tumor model (Table S1).

[10] = 1.85 MBq i.v., blood 1-240 min p.i., γ-counter, seven mice, fitted in Prism 7.0
Experimental: Blood was drawn through the orbit of the mouse at 1, 3, 8, 15, 30, 60, 90, 120, 180, and 240 min p.i. The radioactivity was counted in a γ-counter, and the percentage injected dose per gram of blood (%ID/g) at each time point was calculated. The slow half-life and fast half-life were analyzed and calculated by Prism 7.0.

[11] = system: SK-BR-3 tumor (HER2-positive); details: 0.5, 1 and 2 h p.i.; 0.37 MBq i.v.; 4 mice/group
Experimental: as §3, §4

[12] = radio-HPLC (Fig. 1B)
[13] = target: HER2 on SK-BR-3 cells (HER2-positive human breast cancer cell line) (human (endogenous in SK-BR-3)) (UniProt P04626)
HER2 protein [14] = target: T1, HER2 protein (human, UniProt P04626 23-652); test: SPR; Plexera PlexArray HT; sulfhydryl peptides printed on a bare gold chip through the cysteine thiol, blocked with 5% nonfat milk; protein flowed over in PBS (HER2 at 70.4, 35.2, 17.6 and 8.8 nM); regeneration 0.5% H3PO4; EGFR, HER3 and HER4 as controls with the same procedure; details: both partners purified
T1 construct: human epidermal growth factor receptor 2 (HER2), soluble protein used as SPR analyte; also called human epidermal growth factor receptor 2

[15] = Female, OLINDA/EXM 1.1, from mouse SK-BR-3 biodistribution
[16] = Male, OLINDA/EXM 1.1, from mouse SK-BR-3 biodistribution

Molecule: CC(C)C[C@@H](NC(=O)[C@@H](CCCNC(=N)N)NC(=O)[C@@H](CC(C)C)NC(=O)[C@@H](CCC(=O)O)NC(=O)[C@@H](Cc1c[nH]c2ccccc12)NC(=O)[C@@H](CC(N)=O)NC(=O)[C@@H](CCCNC(=N)N)NC(=O)CCCCCCCNC(=O)CC[C@H](N)C(=O)NCCCCCCCC(=O)N[C@H](CCCNC(=N)N)C(=O)N[C@H](CC(N)=O)C(=O)N[C@H](Cc1c[nH]c2ccccc12)C(=O)N[C@H](CCC(=O)O)C(=O)N[C@H](CC(C)C)C(=O)N[C@H](CCCNC(=N)N)C(=O)N[C@H](CC(C)C)C(=O)N[C@H](CCCCN)C(=O)O)C(=O)N[C@H](CCCCN)C(=O)O [Ark2]
Kd (HER2 protein [1]; read-out: dissociation constant (KD) to HER2 protein, SPR, Plexera PlexArray HT, Cys-peptides printed on gold chip, HER2 protein 8.8-70.4 nM in PBS, from fitted association/dissociation rates): 10 nM

Kd (HER2 protein [1]): 70 nM and 70.2 nM
Molecule: CC(C)C[C@H](NC(=O)[C@H](CCCNC(=N)N)NC(=O)[C@H](CC(C)C)NC(=O)[C@@H](N)CCCCN)C(=O)N[C@@H](CCC(=O)O)C(=O)N[C@@H](Cc1c[nH]c2ccccc12)C(=O)N[C@@H](CC(N)=O)C(=O)N[C@@H](CCCNC(=N)N)C(=O)O [H10F] (H-KLRLEWNR-OH)

Molecule: CC(C)C[C@@H](NC(=O)[C@@H](CCCNC(=N)N)NC(=O)[C@@H](CC(C)C)NC(=O)[C@@H](CCC(=O)O)NC(=O)[C@@H](Cc1c[nH]c2ccccc12)NC(=O)[C@@H](CC(N)=O)NC(=O)[C@@H](CCCNC(=N)N)NC(=O)CCCCCCCNC(=O)CC[C@H](NC(=O)CCOCCOCCOCCOCCNC(=O)c1ccc(NN=Cc2ccccc2S(=O)(=O)O)nc1)C(=O)NCCCCCCCC(=O)N[C@H](CCCNC(=N)N)C(=O)N[C@H](CC(N)=O)C(=O)N[C@H](Cc1c[nH]c2ccccc12)C(=O)N[C@H](CCC(=O)O)C(=O)N[C@H](CC(C)C)C(=O)N[C@H](CCCNC(=N)N)C(=O)N[C@H](CC(C)C)C(=O)N[C@H](CCCCN)C(=O)O)C(=O)N[C@H](CCCCN)C(=O)O [^99mTc-HP-Ark2, metal not drawn]
in vivo metabolic stability [2]: excellent in vitro and in vivo stability
tissue to tissue ratio at 0.5 h (clinical; T/B ratio of HER2-negative tumors, IHC (2+) plus FISH+ or IHC (3+) criterion, n = 24): 1.54 ± 1.03
tissue to tissue ratio at 0.5 h (clinical; T/B ratio of HER2-negative tumors, negative = IHC (0/1+), n = 17): 1.16 ± 0.29
tissue to tissue ratio at 0.5 h (clinical; T/B ratio of HER2-positive tumors, positive = IHC (2+) or (3+), n = 19): 2.49 ± 1.13
tissue to tissue ratio at 0.5 h (clinical; T/B ratio of HER2-positive tumors, positive = IHC (2+) plus FISH+ or IHC (3+), n = 12): 2.5 ± 0.88
imaging intensity in tumors compared with monomer tracer ([3]; SK-BR-3 model, 0.5 h p.i.): stronger than that of ^99mTc-HP-rk
tumor uptake on imaging with coinjected cold rk peptide ([3]; blocking dose 25 mg/kg rk, 0.5 h p.i.): significantly blocked tumor uptake
tumor uptake on imaging with coinjected cold trastuzumab ([3]; blocking dose 30 mg/kg trastuzumab, 0.5 h p.i.): did not block tumor uptake
tumor visualization by SPECT/CT ([3]; ~37 MBq i.v., 0.5, 1 and 2 h p.i., subcutaneous or in situ, tumors as small as ~20 mm^3): clearly visualized
adverse events related to tracer administration ([4]; 34 patients, ~11.1 MBq/kg i.v.): No adverse events
detection of metastatic lymph nodes ([4]; patients with HER2-positive tumors and ipsilateral lymph node metastases (Nos. 4, 5, 7, 15, 24, 29)): all 6 patients
kidney uptake in patients ([4]; quantified biodistribution from SPECT/CT, n = 34 (Fig. S10)): high uptake
tissue uptake at 0.5 h (in vivo [5]): 3.99 ± 0.15 %ID/g
body weight after high-dose injection ([6]; 120 h): did not decrease
organ morphology after dissection ([6]; 120 h): no abnormal organs
behavior after high-dose injection ([6]; 120 h after injection): no abnormal behavior
tissue uptake at 0.5 h (in vivo [7]): 1.44 ± 0.08 %ID/g
tissue uptake at 0.5 h (in vivo [8]): 1.08 ± 0.06 %ID/g
effective radiation dose to the body ([9]; 50 kg females): ~5.72 mSv
effective radiation dose to the body ([9]; 65 kg males): approximately 6.62 mSv
Effective Dose Equivalent, Adrenals [9, 15]: 5.36E-04 mSv/MBq
Effective Dose Equivalent, Brain [9, 15]: 0.00E+00 mSv/MBq
Effective Dose Equivalent, Breasts [9, 15]: 4.44E-05 mSv/MBq
Effective Dose Equivalent, Gallbladder Wall [9, 15]: 2.60E-04 mSv/MBq
Effective Dose Equivalent, Heart Wall [9, 15]: 0.00E+00 mSv/MBq
Effective Dose Equivalent, Kidneys [9, 15]: 7.87E-03 mSv/MBq
Effective Dose Equivalent, LLI Wall [9, 15]: 0.00E+00 mSv/MBq
Effective Dose Equivalent, Liver [9, 15]: 0.00E+00 mSv/MBq
Effective Dose Equivalent, Lungs [9, 15]: 1.90E-04 mSv/MBq
Effective Dose Equivalent, Muscle [9, 15]: 0.00E+00 mSv/MBq
Effective Dose Equivalent, Osteogenic Cells [9, 15]: 6.07E-05 mSv/MBq
Effective Dose Equivalent, Ovaries [9, 15]: 2.49E-04 mSv/MBq
Effective Dose Equivalent, Pancreas [9, 15]: 3.43E-04 mSv/MBq
Effective Dose Equivalent, Red Marrow [9, 15]: 2.27E-04 mSv/MBq
Effective Dose Equivalent, Skin [9, 15]: 0.00E+00 mSv/MBq
Effective Dose Equivalent, Small Intestine [9, 15]: 0.00E+00 mSv/MBq
Effective Dose Equivalent, Spleen [9, 15]: 4.89E-04 mSv/MBq
Effective Dose Equivalent, Stomach Wall [9, 15]: 0.00E+00 mSv/MBq
Effective Dose Equivalent, Thymus [9, 15]: 0.00E+00 mSv/MBq
Effective Dose Equivalent, Thyroid [9, 15]: 2.78E-06 mSv/MBq
Effective Dose Equivalent, ULI Wall [9, 15]: 0.00E+00 mSv/MBq
Effective Dose Equivalent, Urinary Bladder Wall [9, 15]: 0.00E+00 mSv/MBq
Effective Dose Equivalent, Uterus [9, 15]: 0.00E+00 mSv/MBq
Effective Dose Equivalent, Adrenals [9, 16]: 4.04E-04 mSv/MBq
Effective Dose Equivalent, Brain [9, 16]: 0.00E+00 mSv/MBq
Effective Dose Equivalent, Breasts [9, 16]: 3.64E-05 mSv/MBq
Effective Dose Equivalent, Gallbladder Wall [9, 16]: 2.31E-04 mSv/MBq
Effective Dose Equivalent, Heart Wall [9, 16]: 0.00E+00 mSv/MBq
Effective Dose Equivalent, Kidneys [9, 16]: 7.26E-03 mSv/MBq
Effective Dose Equivalent, LLI Wall [9, 16]: 0.00E+00 mSv/MBq
Effective Dose Equivalent, Liver [9, 16]: 0.00E+00 mSv/MBq
Effective Dose Equivalent, Lungs [9, 16]: 1.38E-04 mSv/MBq
Effective Dose Equivalent, Muscle [9, 16]: 0.00E+00 mSv/MBq
Effective Dose Equivalent, Osteogenic Cells [9, 16]: 4.73E-05 mSv/MBq
Effective Dose Equivalent, Pancreas [9, 16]: 2.81E-04 mSv/MBq
Effective Dose Equivalent, Red Marrow [9, 16]: 1.94E-04 mSv/MBq
Effective Dose Equivalent, Skin [9, 16]: 0.00E+00 mSv/MBq
Effective Dose Equivalent, Small Intestine [9, 16]: 0.00E+00 mSv/MBq
Effective Dose Equivalent, Spleen [9, 16]: 3.96E-04 mSv/MBq
Effective Dose Equivalent, Stomach Wall [9, 16]: 0.00E+00 mSv/MBq
Effective Dose Equivalent, Testes [9, 16]: 0.00E+00 mSv/MBq
Effective Dose Equivalent, Thymus [9, 16]: 0.00E+00 mSv/MBq
Effective Dose Equivalent, Thyroid [9, 16]: 2.27E-06 mSv/MBq
Effective Dose Equivalent, ULI Wall [9, 16]: 0.00E+00 mSv/MBq
Effective Dose Equivalent, Urinary Bladder Wall [9, 16]: 0.00E+00 mSv/MBq
Effective Dose Equivalent, Uterus [9, 16]: 0.00E+00 mSv/MBq
fast half-life in blood [10]: 3.12 min
slow half-life in blood [10]: 32.45 min
tumor uptake compared with other organs [11]: higher tumor uptake than uptake in other organs (except for kidneys)
in vitro stability [12]: excellent in vitro and in vivo stability

Molecule: CC(C)C[C@@H](NC(=O)[C@@H](CCCNC(=N)N)NC(=O)[C@@H](CC(C)C)NC(=O)[C@@H](CCC(=O)O)NC(=O)[C@@H](Cc1c[nH]c2ccccc12)NC(=O)[C@@H](CC(N)=O)NC(=O)[C@@H](CCCNC(=N)N)NC(=O)CCOCCOCCOCCOCCNC(=O)c1ccc(NN=Cc2ccccc2S(=O)(=O)O)nc1)C(=O)N[C@H](CCCCN)C(=O)O [^99mTc-HP-rk, metal not drawn]
tissue uptake at 0.5 h (in vivo [5]): 1.94 ± 0.12 %ID/g

tumor uptake in the SK-BR-3 tumor model at 0.5 h p.i. (biodistribution, n = 4) [13]: 3.99 %ID/g
tumor uptake in the SK-BR-3 tumor model at 0.5 h p.i. with coinjection of excess cold rk peptide (blocking group, n = 4) [13]: 1.42 %ID/g
Molecule: ^99mTc-HP-Ark2, ^99mTc-{HYNIC-PEG4-Glu[8-aminooctanoic-D(RNWELRLK)]2/Tricine/TPPTS} (peptide)

Kd (HER2 protein [14]): 70.2 nM
B1: Cys-H10F (sulfhydryl form of the L-peptide H10F, KLRLEWNR) (peptide)
peptide: KLRLEWNR
notes: HER2-targeting L-peptide H10F; also called parental L-peptide; source: synthetic peptide, bought: GL Biochem Ltd
